In general, IC50 refers to the concentration that inhibits the measured activity by half. Read a low IC50 as higher potency.

The chains are these.
B1: peptide of SEQ ID NO: 24 (peptide)
peptide: Ac-ARVYDLGLRRLRQRRRLRRERVRAKRYDREFLLAFQF[Nle]-NH2
SMILES: CCCC[C@H](NC(=O)[C@H](Cc1ccccc1)NC(=O)[C@H](CCC(N)=O)NC(=O)[C@H](Cc1ccccc1)NC(=O)[C@H](C)NC(=O)[C@H](CC(C)C)NC(=O)[C@H](CC(C)C)NC(=O)[C@H](Cc1ccccc1)NC(=O)[C@H](CCC(=O)O)NC(=O)[C@H](CCCNC(=N)N)NC(=O)[C@H](CC(=O)O)NC(=O)[C@H](Cc1ccc(O)cc1)NC(=O)[C@H](CCCNC(=N)N)NC(=O)[C@H](CCCCN)NC(=O)[C@H](C)NC(=O)[C@H](CCCNC(=N)N)NC(=O)[C@@H](NC(=O)[C@H](CCCNC(=N)N)NC(=O)[C@H](CCC(=O)O)NC(=O)[C@H](CCCNC(=N)N)NC(=O)[C@H](CCCNC(=N)N)NC(=O)[C@H](CC(C)C)NC(=O)[C@H](CCCNC(=N)N)NC(=O)[C@H](CCCNC(=N)N)NC(=O)[C@H](CCCNC(=N)N)NC(=O)[C@H](CCC(N)=O)NC(=O)[C@H](CCCNC(=N)N)NC(=O)[C@H](CC(C)C)NC(=O)[C@H](CCCNC(=N)N)NC(=O)[C@H](CCCNC(=N)N)NC(=O)[C@H](CC(C)C)NC(=O)CNC(=O)[C@H](CC(C)C)NC(=O)[C@H](CC(=O)O)NC(=O)[C@H](Cc1ccc(O)cc1)NC(=O)[C@@H](NC(=O)[C@H](CCCNC(=N)N)NC(=O)[C@H](C)NC(C)=O)C(C)C)C(C)C)C(N)=O
B2: peptide of SEQ ID NO: 23 (peptide)
peptide: Ac-KRYDREFLLAFQF[Nle]VYDLGLRRLRQRRRLRRERVRA-NH2
SMILES: CCCC[C@H](NC(=O)[C@H](Cc1ccccc1)NC(=O)[C@H](CCC(N)=O)NC(=O)[C@H](Cc1ccccc1)NC(=O)[C@H](C)NC(=O)[C@H](CC(C)C)NC(=O)[C@H](CC(C)C)NC(=O)[C@H](Cc1ccccc1)NC(=O)[C@H](CCC(=O)O)NC(=O)[C@H](CCCNC(=N)N)NC(=O)[C@H](CC(=O)O)NC(=O)[C@H](Cc1ccc(O)cc1)NC(=O)[C@H](CCCNC(=N)N)NC(=O)[C@H](CCCCN)NC(C)=O)C(=O)N[C@H](C(=O)N[C@@H](Cc1ccc(O)cc1)C(=O)N[C@@H](CC(=O)O)C(=O)N[C@@H](CC(C)C)C(=O)NCC(=O)N[C@@H](CC(C)C)C(=O)N[C@@H](CCCNC(=N)N)C(=O)N[C@@H](CCCNC(=N)N)C(=O)N[C@@H](CC(C)C)C(=O)N[C@@H](CCCNC(=N)N)C(=O)N[C@@H](CCC(N)=O)C(=O)N[C@@H](CCCNC(=N)N)C(=O)N[C@@H](CCCNC(=N)N)C(=O)N[C@@H](CCCNC(=N)N)C(=O)N[C@@H](CC(C)C)C(=O)N[C@@H](CCCNC(=N)N)C(=O)N[C@@H](CCCNC(=N)N)C(=O)N[C@@H](CCC(=O)O)C(=O)N[C@@H](CCCNC(=N)N)C(=O)N[C@H](C(=O)N[C@@H](CCCNC(=N)N)C(=O)N[C@@H](C)C(N)=O)C(C)C)C(C)C
B3: peptide of SEQ ID NO: 22 (peptide)
peptide: Ac-KRYDREFLLAFQF[Nle]RRLRQRRRLRRERVRA-NH2
SMILES: CCCC[C@H](NC(=O)[C@H](Cc1ccccc1)NC(=O)[C@H](CCC(N)=O)NC(=O)[C@H](Cc1ccccc1)NC(=O)[C@H](C)NC(=O)[C@H](CC(C)C)NC(=O)[C@H](CC(C)C)NC(=O)[C@H](Cc1ccccc1)NC(=O)[C@H](CCC(=O)O)NC(=O)[C@H](CCCNC(=N)N)NC(=O)[C@H](CC(=O)O)NC(=O)[C@H](Cc1ccc(O)cc1)NC(=O)[C@H](CCCNC(=N)N)NC(=O)[C@H](CCCCN)NC(C)=O)C(=O)N[C@@H](CCCNC(=N)N)C(=O)N[C@@H](CCCNC(=N)N)C(=O)N[C@@H](CC(C)C)C(=O)N[C@@H](CCCNC(=N)N)C(=O)N[C@@H](CCC(N)=O)C(=O)N[C@@H](CCCNC(=N)N)C(=O)N[C@@H](CCCNC(=N)N)C(=O)N[C@@H](CCCNC(=N)N)C(=O)N[C@@H](CC(C)C)C(=O)N[C@@H](CCCNC(=N)N)C(=O)N[C@@H](CCCNC(=N)N)C(=O)N[C@@H](CCC(=O)O)C(=O)N[C@@H](CCCNC(=N)N)C(=O)N[C@H](C(=O)N[C@@H](CCCNC(=N)N)C(=O)N[C@@H](C)C(N)=O)C(C)C

Square brackets hold non-standard residues; d marks the D form. Nle = CCCC[C@H](N)C(=O)O

T1 sequence (P06730 other isoform, or with tags, fused parts or gaps limits assumed): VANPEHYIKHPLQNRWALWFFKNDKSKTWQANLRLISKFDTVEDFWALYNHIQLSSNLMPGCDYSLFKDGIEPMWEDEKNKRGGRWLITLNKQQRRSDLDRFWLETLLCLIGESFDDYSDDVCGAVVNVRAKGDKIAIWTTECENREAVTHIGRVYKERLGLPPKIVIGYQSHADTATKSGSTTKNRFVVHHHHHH

The assay has as its target T1, Human eIF4E (aa 28-217) with a C-terminal His tag (human, UniProt P06730 28-217).
T1 construct: also called HH-eIF4E; eukaryotic initiation factor 4E
Description: TR-FRET competition vs biotin-4G2 peptide on HH-eIF4E.
Description: Test peptides (1.6 mM stock in DMSO) were diluted 3 fold in series in DMSO and solutions were diluted 4 fold in Assay Buffer (50 mM NaPi, pH 6.5, 50 mM KCl, 1 mM DTT, 0.004% NP40 and 0.5 mg/ml gammaglobulin). […] The samples were incubated at room temperature for 20 minutes.
IC50 values were calculated using Condoseo software (Genedata AG, Basel, Switzerland).
In turn, Ac-GAAEAAARVYDLGLRRLRQRRYLRRELLRF-NH2 [peptide of SEQ ID NO: 26] returned an IC50 of 250 nM.
Turning to B1, the IC50 came to 19 nM.
Ac-GAAEAAAYVYDLLLRFLRQRRRLRRERVRA-NH2 [peptide of SEQ ID NO: 25] gave an IC50 of 11000 nM.
B2 showed an IC50 of 180 nM.
Take B3: the IC50 came out at 198 nM.

The values above are taken from patent publication US20150166621A1 (Hoffmann-La Roche, published 2015).
